# B1: truncated APLF^AD construct corresponding to residues 449 to 490 (APLF^AD-Δ) [Homo sapiens] / stoichiometric mixture of full-length Drosophila melanogaster -H2B and H3-H4 (octamer-mix) [Drosophila … (parent)
# chain 1: GLDEDNDNVGQPNEYDLNDSFLDDEEEDYEPTDEDSDWEPGKE
# chain 2: not shown
# chain 3: not shown
# chain 4: not shown
# chain 5: not shown
# Variants of: B1
# Test: ITC
# Conditions: with stoichiometric mixture of full-length Drosophila melanogaster H2A-H2B and H3-H4 (octamer-mix) [Drosophila melanogaster]
row,Kd,Variant
1,1220 nM,chain 1 Y15A F21A Y29A W38A

# — paper PMC9328677
